Assay results: publication PMC11098434, “The effect of TG2-inhibitory monoclonal antibody zampilimab on tissue fibrosis in human in vitro and primate in vivo models of chronic kidney disease” (PLOS ONE, 2024)
Substitutions are numbered along the chain they refer to. Each block holds one molecule with its values, some of them ahead of it.

What was measured:
zampilimab (human) [1] = test: SPR; BIAcore T200; test antibody captured (~100-200 RU) by goat anti-human IgG Fc F(ab')2 immobilised on a CM5 chip; TG2 titrated over it at 100 nM to 6.25 nM, 600 s association, up to 3200 s dissociation; 10 mM HEPES pH 7.4, 0.15 M NaCl, 0.005% Surfactant P20, 2 mM CaCl2 (+Ca2+); 1:1 fit
zampilimab (human) [2] = test: SPR; as the SPR with calcium (antibody captured by anti-human Fc, TG2 flowed over) but in the absence of calcium (-Ca2+); buffer of this condition not detailed
human transglutaminase 2 [3] = target: T1, human transglutaminase 2 (Homo sapiens, UniProt P21980)
T1 sequence (P21980 whole entry): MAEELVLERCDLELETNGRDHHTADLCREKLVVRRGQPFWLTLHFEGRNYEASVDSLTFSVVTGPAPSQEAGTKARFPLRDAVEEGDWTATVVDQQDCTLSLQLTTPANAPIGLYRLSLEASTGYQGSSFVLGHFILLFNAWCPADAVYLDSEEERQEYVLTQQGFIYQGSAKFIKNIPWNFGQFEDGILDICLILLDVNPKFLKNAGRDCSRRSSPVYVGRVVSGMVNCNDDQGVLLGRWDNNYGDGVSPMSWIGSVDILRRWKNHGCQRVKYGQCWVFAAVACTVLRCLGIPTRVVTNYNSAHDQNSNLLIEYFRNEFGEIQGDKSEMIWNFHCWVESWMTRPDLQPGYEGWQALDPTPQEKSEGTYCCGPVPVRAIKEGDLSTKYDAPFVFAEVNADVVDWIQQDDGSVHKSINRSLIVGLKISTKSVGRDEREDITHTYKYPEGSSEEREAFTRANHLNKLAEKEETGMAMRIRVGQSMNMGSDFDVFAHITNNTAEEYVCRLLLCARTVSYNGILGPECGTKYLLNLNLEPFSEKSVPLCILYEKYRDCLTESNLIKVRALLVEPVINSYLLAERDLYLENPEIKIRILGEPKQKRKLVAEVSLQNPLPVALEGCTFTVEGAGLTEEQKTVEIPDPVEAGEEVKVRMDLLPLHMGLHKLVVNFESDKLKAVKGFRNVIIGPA

human transglutaminase 2 [4] = target: T1, human transglutaminase 2; test: SPR; BIAcore T200; test antibody captured (~100-200 RU) by goat anti-human IgG Fc F(ab')2 immobilised on a CM5 chip; TG2 titrated over it at 100 nM to 6.25 nM, 600 s association, up to 3200 s dissociation; 10 mM HEPES pH 7.4, 0.15 M NaCl, 0.005% Surfactant P20, 2 mM CaCl2 (+Ca2+); 1:1 fit; conditions: both partners purified
[5] = target: cynomolgus monkey transglutaminase 2 (cynomolgus monkey)
human transglutaminase 2 [6] = target: T1, human transglutaminase 2; test: SPR; as the SPR with calcium (antibody captured by anti-human Fc, TG2 flowed over) but in the absence of calcium (-Ca2+); buffer of this condition not detailed; conditions: both partners purified
human transglutaminase 2 [7] = target: T1, human transglutaminase 2; test: cell-based or functional assay
[8] = target: rabbit transglutaminase 2 (Oryctolagus cuniculus (rabbit), UniProt A0A5F9DRZ3); test: cell-based or functional assay
TG3 = target: T2, TG3 (Homo sapiens (assumed), UniProt Q08188); test: ELISA; ELISA of the humanized antibodies on TG2 and other TG family members; antibody up to 100 nM; format not described
T2 construct: transglutaminase family member TG3; also called transglutaminase 3
T2 sequence (Q08188 whole entry): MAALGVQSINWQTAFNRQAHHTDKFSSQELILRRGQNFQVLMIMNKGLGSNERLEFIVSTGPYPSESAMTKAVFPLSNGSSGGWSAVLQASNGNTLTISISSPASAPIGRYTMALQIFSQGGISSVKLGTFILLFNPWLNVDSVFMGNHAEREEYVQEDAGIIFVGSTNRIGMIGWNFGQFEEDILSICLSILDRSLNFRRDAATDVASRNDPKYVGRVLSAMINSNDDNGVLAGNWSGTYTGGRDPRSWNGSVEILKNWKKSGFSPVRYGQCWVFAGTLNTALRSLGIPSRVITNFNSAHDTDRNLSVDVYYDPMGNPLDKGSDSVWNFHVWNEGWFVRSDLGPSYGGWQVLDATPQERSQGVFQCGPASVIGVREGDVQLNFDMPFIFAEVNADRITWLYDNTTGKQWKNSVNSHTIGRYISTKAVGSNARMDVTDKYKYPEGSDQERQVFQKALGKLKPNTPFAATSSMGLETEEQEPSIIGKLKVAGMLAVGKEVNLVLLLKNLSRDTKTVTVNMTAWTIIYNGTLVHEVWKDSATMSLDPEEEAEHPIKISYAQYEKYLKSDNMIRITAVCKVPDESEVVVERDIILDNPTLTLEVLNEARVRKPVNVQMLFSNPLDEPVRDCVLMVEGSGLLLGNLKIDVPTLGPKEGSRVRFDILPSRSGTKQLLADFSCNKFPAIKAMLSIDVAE

TG1 = target: T3, TG1 (Homo sapiens (assumed), UniProt P22735); test: as above
T3 construct: transglutaminase family member TG1; also called transglutaminase 1
T3 sequence (P22735 whole entry): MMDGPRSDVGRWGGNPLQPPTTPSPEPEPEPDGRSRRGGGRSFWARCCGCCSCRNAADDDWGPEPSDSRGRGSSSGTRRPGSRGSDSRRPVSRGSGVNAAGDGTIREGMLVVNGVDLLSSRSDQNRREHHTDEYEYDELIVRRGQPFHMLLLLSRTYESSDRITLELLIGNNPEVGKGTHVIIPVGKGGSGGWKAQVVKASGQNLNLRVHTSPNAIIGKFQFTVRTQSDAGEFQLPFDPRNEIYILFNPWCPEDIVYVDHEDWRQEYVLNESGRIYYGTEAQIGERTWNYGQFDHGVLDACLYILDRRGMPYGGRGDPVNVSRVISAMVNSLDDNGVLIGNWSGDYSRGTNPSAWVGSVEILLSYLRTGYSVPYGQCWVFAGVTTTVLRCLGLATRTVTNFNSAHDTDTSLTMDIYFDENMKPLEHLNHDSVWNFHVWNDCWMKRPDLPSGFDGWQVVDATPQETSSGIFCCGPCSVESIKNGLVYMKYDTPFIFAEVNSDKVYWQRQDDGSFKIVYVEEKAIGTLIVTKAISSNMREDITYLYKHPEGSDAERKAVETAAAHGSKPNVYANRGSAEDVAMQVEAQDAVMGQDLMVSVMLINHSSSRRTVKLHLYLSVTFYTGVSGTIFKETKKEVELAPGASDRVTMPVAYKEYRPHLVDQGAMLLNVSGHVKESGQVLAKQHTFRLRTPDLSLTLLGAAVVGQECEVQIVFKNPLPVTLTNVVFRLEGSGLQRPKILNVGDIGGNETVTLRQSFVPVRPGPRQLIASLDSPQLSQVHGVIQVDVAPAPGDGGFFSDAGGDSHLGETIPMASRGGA

[9] = target: T4, TG2 (as used in the ELISA of the humanized antibodies) (Homo sapiens (assumed), UniProt P21980); test: as above
T4 construct: transglutaminase 2 (TG2); also called transglutaminase 2
T4 sequence (P21980 whole entry): as the sequence (P21980 whole entry) above

TG7 = target: T5, TG7 (Homo sapiens (assumed), UniProt Q96PF1); test: as above
T5 construct: transglutaminase family member TG7; also called transglutaminase 7
T5 sequence (Q96PF1 whole entry): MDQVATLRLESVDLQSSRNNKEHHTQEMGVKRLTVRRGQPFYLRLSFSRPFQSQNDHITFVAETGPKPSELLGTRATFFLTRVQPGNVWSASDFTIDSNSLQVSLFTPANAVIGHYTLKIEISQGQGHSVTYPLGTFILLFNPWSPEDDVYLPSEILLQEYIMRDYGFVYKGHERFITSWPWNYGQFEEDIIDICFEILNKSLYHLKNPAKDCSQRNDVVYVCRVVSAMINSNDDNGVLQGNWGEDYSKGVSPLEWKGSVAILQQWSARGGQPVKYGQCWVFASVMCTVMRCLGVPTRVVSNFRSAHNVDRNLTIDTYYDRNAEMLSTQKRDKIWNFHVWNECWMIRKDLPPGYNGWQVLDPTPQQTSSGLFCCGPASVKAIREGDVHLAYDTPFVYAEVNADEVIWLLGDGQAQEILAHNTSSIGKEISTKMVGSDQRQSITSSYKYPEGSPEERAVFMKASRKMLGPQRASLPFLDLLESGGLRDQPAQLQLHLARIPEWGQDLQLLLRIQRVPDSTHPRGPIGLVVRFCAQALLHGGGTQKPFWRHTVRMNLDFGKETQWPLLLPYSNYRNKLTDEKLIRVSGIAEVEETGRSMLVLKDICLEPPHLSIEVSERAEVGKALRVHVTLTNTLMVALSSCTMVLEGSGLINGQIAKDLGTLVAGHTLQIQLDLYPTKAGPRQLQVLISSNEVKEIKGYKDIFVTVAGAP

TG5 = target: T6, TG5 (Homo sapiens (assumed), UniProt O43548); test: as above
T6 construct: transglutaminase family member TG5; also called transglutaminase 5
T6 sequence (O43548 whole entry): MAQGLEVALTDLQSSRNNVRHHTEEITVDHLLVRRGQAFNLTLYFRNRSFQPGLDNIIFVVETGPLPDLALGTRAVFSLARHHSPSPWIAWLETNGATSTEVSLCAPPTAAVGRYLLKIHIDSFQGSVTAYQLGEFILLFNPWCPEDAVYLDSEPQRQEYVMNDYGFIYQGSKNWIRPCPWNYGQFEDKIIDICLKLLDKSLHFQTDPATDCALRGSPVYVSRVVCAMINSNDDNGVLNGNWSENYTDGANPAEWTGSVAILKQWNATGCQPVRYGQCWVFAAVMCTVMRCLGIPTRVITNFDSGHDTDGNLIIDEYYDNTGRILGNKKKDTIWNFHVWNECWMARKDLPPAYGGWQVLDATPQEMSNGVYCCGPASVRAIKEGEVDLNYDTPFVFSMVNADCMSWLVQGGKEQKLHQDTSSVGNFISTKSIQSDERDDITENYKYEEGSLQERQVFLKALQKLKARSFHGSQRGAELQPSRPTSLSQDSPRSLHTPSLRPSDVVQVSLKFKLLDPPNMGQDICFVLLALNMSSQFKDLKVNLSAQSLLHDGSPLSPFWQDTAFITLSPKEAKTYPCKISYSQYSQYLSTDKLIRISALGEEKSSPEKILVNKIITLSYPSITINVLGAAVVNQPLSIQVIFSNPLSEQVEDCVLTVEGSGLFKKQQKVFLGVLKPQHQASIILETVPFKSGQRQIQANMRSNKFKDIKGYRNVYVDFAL

human transglutaminase 2 [10] = target: T1, human transglutaminase 2; test: cell-based or functional assay; remark: listed apart in the source
[11] = target: rabbit transglutaminase 2 (rabbit)

Kd (zampilimab (human) [1]): < 0.037 nM
Kd (zampilimab (human) [2]): < 0.05 nM
Molecule: cynomolgus monkey transglutaminase 2 (enzyme)

binding result (human transglutaminase 2 [3]): binds
B1: mDC1 (antibody, V domains shown)
VH: EVQLVESGGGLVKPGGSLKLSCAASGFTLSTHAMSWVRQTPEKRLEWVATISSGGRSTYYPDSVKGRFTISRDNVKNTLYLQLSSLRSEDTAVYFCARLISTYWGQGTTLTVSS
VL: DITMTQSPSSIYASLGERVTITCKASQDINSYLTWFQQKPGKSPKILIYLVNRLVDGVPSRFSGSGSGQDYALTISSLEYEDMGIYYCLQYDDFPYTFGGGTKLEIK

Kd (human transglutaminase 2 [4]): < 0.05 nM
IC50 of inhibition of TG2 activity (KxD assay on recombinant protein by the text; biotin cadaverine incorporation by the table's footnote) [5]: 0.22 nM
Kd (human transglutaminase 2 [6]): < 0.107 nM
IC50 of inhibition of TG2 activity (KxD assay on recombinant protein by the text; biotin cadaverine incorporation by the table's footnote) (human transglutaminase 2 [7]): 0.25 nM
IC50 of inhibition of TG2 activity (KxD assay on recombinant protein by the text; biotin cadaverine incorporation by the table's footnote) [8]: 103 nM
binding result (TG3): no binding (tested: 100 nM)
binding result (TG1): no binding (tested: 100 nM)
EC50 [9]: ~0.02 nM
binding result (TG7): no binding (tested: 100 nM)
binding result (TG5): no binding (tested: 100 nM)
IC50 of inhibition of extracellular TG activity (biotin cadaverine incorporation) in primary human RPTEC induced with TGF-β1, four independent studies (human transglutaminase 2 [10]): 119 nM
B2: zampilimab (antibody, V domains shown)
VH: EVQLLESGGGLVQPGGSLRLSCAASGFTLSTHAMSWVRQAPGKGLEWVATISSGGRSTYYPDSVKGRFTISRDNSKNTLYLQMNSLRAEDTAVYFCARLISTYWGQGTLVTVSS
VL: DITMTQSPSSLSASVGDRVTITCKASQDINSYLTWFQQKPGKAPKILIYLVNRLVDGVPSRFSGSGSGQDYALTISSLQPEDFATYYCLQYDDFPYTFGQGTKVEIK
notes: humanized DC1 VH; DC1 CDRs grafted on the human framework AF062260 with back mutation of the 5 Å Proximity residues; human heavy chain constant region; humanized DC1 VK; DC1 CDRs grafted on the human framework AF193851 with back mutation of the 5 Å Proximity residues; The discussion speaks of zampilimab as an IgG4P antibody in the monkey study; also called hDC1; UCB7858; source: Expi293 cells, …

Kd (human transglutaminase 2 [4]): < 0.06 nM
IC50 of inhibition of TG2 activity (KxD assay on recombinant protein by the text; biotin cadaverine incorporation by the table's footnote) [11]: 6.59 nM
IC50 of inhibition of TG2 activity (KxD assay on recombinant protein by the text; biotin cadaverine incorporation by the table's footnote) [5]: 0.25 nM
IC50 of inhibition of TG2 activity (KxD assay on recombinant protein by the text; biotin cadaverine incorporation by the table's footnote) (human transglutaminase 2 [7]): 0.28 nM
binding result (TG3): no binding (tested: 100 nM)
binding result (TG1): no binding (tested: 100 nM)
EC50 [9]: ~0.02 nM
binding result (TG7): no binding (tested: 100 nM)
binding result (TG5): no binding (tested: 100 nM)
B3: hBB7 (antibody, V domains shown)
VH: B2 VH with F27I, T28I, L29F, T31S, H32S, I70V, N74S, F95Y, R98K, T102P
VL: B2 VL with T3K, I46T, V51T, V55M, D70E, Y71F, A72L, D92V
notes: humanized BB7 VH; BB7 CDRs grafted on the human framework AF062260 with back mutation of the 5 Å Proximity residues; human heavy chain constant region; humanized BB7 VK; BB7 CDRs grafted on the human framework AF193851 with back mutation of the 5 Å Proximity residues; also called humanized BB7; source: Expi293 cells, co-transfected heavy and kappa light chain vectors, purified from supernatant …

binding result (human transglutaminase 2 [3]): binds
B4: mBB7 (antibody, V domains shown)
VH: AVQLVESGGGLVKPGGSLKLSCAASGIIFSSSAMSWVRQTPEKRLEWVATISSGGRSTYYPDSVKGRFTVSRDSAKNTLYLQMDSLRSEDTAIYYCAKLISPYWGQGTTLTVSS
VL: AIKMTQSPSSMYASLGERVIITCKASQDINSYLTWFQQKPGKSPKTLIYLTNRLMDGVPSRFSGSGSGQEFLLTISGLEHEDMGIYYCLQYVDFPYTFGGGTKLEIK
